Experimental data: US20100104577A1 (published 2010)

Columns and labels:
Aβ1-40 = molecular target: T1, Aβ1-40 (human, UniProt P05067 672-711); assay: pulldown of conditioned media of transfected 293T cells with fibrillar Aβ40, western blot with anti-His
T1 construct: domain: Aβ1-40; Used as a soluble peptide (ELISA), as fibrils (fAβ40 pulldown) and as expressed in TgBRI-Aβ40, Tg2576 and CRND8 mice (plasma complexes); also called Aβ40; human Aβ40
Procedure: (§1) Fibrillar Aβ pulldown assays. One mL of conditioned media from 293T HEK cells transiently transfected with pSecTag palsmids encoding the anti-Aβ scFv was incubated with 10 μg of fibrillar Aβ40 or Aβ42 (fAβ) at 4° C. for 1 hour. The fibrils were then spun down and resuspended in SDS-PAGE loading buffer. The presence of scFv was determined by western blot with rabbit anti-His (Bethyl). To determine the Aβ40 binding properties of scFv secreted into the media, capture ELISA was used with Aβ40 peptide as capture and anti-myc-HRP, 1:2000, as detection.
(§2) Prior to testing the effects of the scFv in vivo, the anti-Aβ scFvs expressed from 293T cells were characterized.

Aβ1-42 = molecular target: T2, Aβ1-42 (human, UniProt P05067 672-713); assay: pulldown of conditioned media of transfected 293T cells with fibrillar Aβ42, western blot with anti-His
T2 construct: domain: Aβ1-42; also called Aβ42; fAβ42 (fibrillar form in the pulldown)
T2 sequence (P05067 672-713 limits assumed): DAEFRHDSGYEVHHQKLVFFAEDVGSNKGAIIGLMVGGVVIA
Procedure: as §1, §2

T1 sequence (P05067 672-711 limits assumed): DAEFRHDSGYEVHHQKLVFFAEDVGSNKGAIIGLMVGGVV

| Binder | binding result (Aβ1-40) | binding result (Aβ1-42) |
| --- | --- | --- |
| scFv40.1 (scFv, VH-linker-VL from mAb40.1; secreted from 293T HEK cells (pSecTag), detected by anti-His and anti-myc; Tested as conditioned medium) scFv: EVQLQQSGADLVKPGASVKLSCTASGFNIKATYMHWVRQRPEQGLEWIGRIDPANGDTKYDPKFQGKATLTVDTSSNTAYLQLSSLTSEDTAVYYCSTLYYREAYWGQGTLVTVSAGGGGSGGGSGGGGSDVVMTQTPLTLSVTIGQPASISCKSSQRLIYSDGKTYLNWLLQRPGQSPKRLIYLVSKLDSGVPDRFTGSGSGTDFTLKISRVEAEDLGVYYCWQGTHFPVTFGAGTKLELKR | binds |  |
| scFv42.2 (scFv, VH-linker-VL from mAb42.2; secreted from 293T HEK cells (pSecTag), detected by anti-His and anti-myc; Tested as conditioned medium; also called anti-Aβ42 specific scFv42.2) scFv: EVQLQQSGPELVKPGASGKISCKTSGYTFSENTMHWVKQSHGKSLEWIGGINPNTGATYYNQKFKGKATLTVDTSSSTAYLELRSLTSADSAVYYCVRNGLLTLGAMDYWGQGTSVTVSSGGGGSGGGGSGGGGSDVVMTQTPLSLPVSLGDQASISCRSSQSLVHSNGNTYLYWCLQKPGQSPKLLIYKVSSRFSGVPDRFSGSGSGTDFTLKISRVEAEDLGVYFCSQSTHAPLTFGAGTKLELKR | no binding | binds |
